Paper PMC9960219, “Structural and DNA end resection study of the bacterial NurA-HerA complex” (BMC Biology, 2023)
Blank lines part the entries; values can stand above or below the molecule they belong to.

How the values were obtained:
drHerA = molecular target: T1, drHerA (Deinococcus radiodurans, UniProt Q9RW32); assay: X-ray crystal structure, […] Å; assay type: binding; details: Mg2+; crystals set up with ADP, NaF and AlCl3, only ADP seen; one ADP per protomer
T1 construct: gene DR_0837; full length, residues 1-618, N-terminal 6xHis tag (pET28a), expressed in E. coli Rosetta (DE3); homohexamer; ADP site between two protomers
T1 sequence (Q9RW32 1-618): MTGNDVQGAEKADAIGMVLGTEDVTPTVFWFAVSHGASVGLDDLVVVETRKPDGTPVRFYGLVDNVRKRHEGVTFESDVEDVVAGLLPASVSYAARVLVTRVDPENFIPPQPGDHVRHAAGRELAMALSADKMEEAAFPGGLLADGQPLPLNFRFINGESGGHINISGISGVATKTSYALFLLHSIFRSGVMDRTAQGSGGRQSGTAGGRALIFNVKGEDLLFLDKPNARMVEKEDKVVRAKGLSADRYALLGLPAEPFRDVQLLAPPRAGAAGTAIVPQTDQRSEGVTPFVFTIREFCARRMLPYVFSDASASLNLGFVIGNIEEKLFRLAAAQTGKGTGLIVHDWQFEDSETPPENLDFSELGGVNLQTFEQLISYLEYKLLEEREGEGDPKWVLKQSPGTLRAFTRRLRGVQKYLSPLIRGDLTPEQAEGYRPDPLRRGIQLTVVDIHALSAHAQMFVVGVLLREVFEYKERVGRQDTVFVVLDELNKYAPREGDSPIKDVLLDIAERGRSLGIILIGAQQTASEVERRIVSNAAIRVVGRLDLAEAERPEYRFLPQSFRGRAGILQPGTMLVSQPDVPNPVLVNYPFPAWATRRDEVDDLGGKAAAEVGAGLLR

[1] = molecular target: Deinococcus radiodurans HerA (Deinococcus radiodurans); assay: cryo-EM structure; purified drNurA-HerA complex, low-resolution (~9 Å) map, 200 kV, 3D refinement with C2 symmetry; drHerA crystal structure and an AlphaFold2 model of drNurA fitted and refined into the map
[2] = molecular target: Deinococcus radiodurans HerA (Deinococcus radiodurans); assay: crystal structure; drHerA with ADP bound (set up with ADP•AlF3, MgAc), space group P2(1)2(1)2(1), 3.4 Å; 0.2 M MgCl2, 0.1 M HEPES (pH 7.8), 14% PEG 3350
[3] = molecular target: Deinococcus radiodurans HerA (Deinococcus radiodurans); assay: cryo-EM structure; 2D class averages (top views) of purified drHerA alone, with ADP, with ADPNP or with 46-bp dsDNA; 200 kV Tecnai F20
[4] = molecular target: Deinococcus radiodurans HerA (Deinococcus radiodurans); assay: crystal structure; drHerA without any ligand, space group P3(1)21, 3.0 Å; sitting drop at 289 K, 0.1 M HEPES (pH 7.5), 1.3 M NaAc
[5] = molecular target: Deinococcus radiodurans NurA (Deinococcus radiodurans); assay: cryo-EM structure; purified drNurA-HerA complex, low-resolution (~9 Å) map, 200 kV, 3D refinement with C2 symmetry; drHerA crystal structure and an AlphaFold2 model of drNurA fitted and refined into the map
[6] = molecular target: Deinococcus radiodurans HerA (Deinococcus radiodurans)
[7] = molecular target: HerA with point mutations D78A, E80A, and D81A (Deinococcus radiodurans)

Molecule: Nc1ncnc2c1ncn2[C@@H]1O[C@H](COP(=O)(O)OP(=O)(O)O)[C@@H](O)[C@H]1O [ADP]
X-ray crystal structure, 3.4 Å (drHerA): each protomer is bound to one ADP molecule

stoichiometry N [1]: 6
stoichiometry N [2]: 6
stoichiometry N [3]: 6
stoichiometry N [4]: 6
Molecule: Deinococcus radiodurans HerA (enzyme)

stoichiometry N [5]: 2
ATPase activity of drHerA with drNurA, Mn2+, ds DNA (ATPase mol/protein/min) [6]: 4.18
ATPase activity of drHerA with drNurA, Mn2+, no DNA (ATPase mol/protein/min) [6]: 0.42
ATPase activity of drHerA with drNurA, Mn2+, ss DNA (ATPase mol/protein/min) [6]: 28.6
ATPase activity of HerA^m with drNurA, Mn2+, ds DNA (ATPase mol/protein/min) [7]: 0.38
ATPase activity of HerA^m with drNurA, Mn2+, no DNA (ATPase mol/protein/min) [7]: < 0.01
ATPase activity of HerA^m with drNurA, Mn2+, ss DNA (ATPase mol/protein/min) [7]: 6.01
Molecule: Deinococcus radiodurans NurA (enzyme)
